Legend:
Experiment in all cases: ITC
OsChz1-C mutant 2M = OsChz1-C mutant 2M (rice (Oryza sativa))
OsChz1-C mutant 3M = OsChz1-C mutant 3M (rice (Oryza sativa))
OsChz1-C mutant 1M = OsChz1-C mutant 1M (rice (Oryza sativa))

Kd (OsChz1-C mutant 2M): 259 nM | Kd (OsChz1-C mutant 3M): 146 nM | Kd (OsChz1-C mutant 1M): 150 nM
B1: Arabidopsis histone H2A (HTA1)-H2B (HTB1) dimer (complex)
chain 1: MAGRGKTLGSGGAKKATSRSSKAGLQFPVGRIARFLKAGKYAERVGAGAPVYLAAVLEYLAAEVLELAGNAARDNKKTRIVPRHIQLAVRNDEELSKLLGDVTIANGGVMPNIHNLLLPKKAGASKPQED
chain 2: MAPRAEKKPAEKKTAAERPVEENKAAEKAPAEKKPKAGKKLPPKEAGDKKKKRSKKNVETYKIYIFKVLKQVHPDIGISSKAMGIMNSFINDIFEKLAQESSKLARYNKKPTITSREIQTAVRLVLPGELAKHAVSEGTKAVTKFTSS

From publication PMC7658359 (2020)
